Results on 23 sequences are retold here after the DeepSol protein solubility set.

A short description of the series: soluble on expression in E. coli; label from the status in PepcDB or PDB records.
As to “MNGEEIIRFERVTKEYDGTVVLDDVSFAMERGKFYTLLGPSGCGKTTILRLIAGFIEPTEGTIYFHGKPIQNVPPNKRQVNTVFQDYALFPHLDVFENVAFGLRVKKMKEADIRQKVSEALRFVNLEGYERRRIQEMSGGQRQRVAIARAIVNEPEVLLLDEPLSALDLKLRTEMQYELRELQRRLGITFIFVTHDQEEALAMSDYIFVLNKGKIQQFGTPKDIYDEPINRFVADFIGESNILSGRMIDDFLVEFAGKQFACVDRGFAPNEPVDVVIRPEDLELAAPEDGQIVIRVDSLLFRGVHYEICGYDENGNEWLVHSTKKAEVGETVGLRFEPEAIHVMRVEREDEGA”, the “soluble on expression in E. coli” value was “soluble”.
“MNGGKETIDDMSLVVGMYGNYEVTKTGNLVGILEVSGINLDLLNETEQQDVFEDYGAFLMSTLGEGVDDTLQFLEPTIPVNMTTYLNGLKRRYLALQKDHPEQQFKIQLIASYLDHFTKVQESKNMTTKQHLLIVKVPIKDKSAESLNLAVAHLDEKIEQVKRDIENALTDFDVTAKILTSQEVQEILKNLINFNGLEHHHHHH”: the “soluble on expression in E. coli” value is “soluble”.
To “MNGGSSIKVLGLVGSPKVDGNTAKMVDAILEGAAENGAETVIYNLASLDIKGCDACHRCQETGCCAIDDDMQELYRQIEEADAVVLGSPVYMWQMTAQTKLLIDRMTAFLKPNFSSRLDHKKLILVFTQGIPDRDAFNSYFEYTAGVLYYLGFDVLETIVAAGTDNLEVAFRPRLLEKSRELGKLISASNPVSPRYRRALEHHHHHH” belongs “not soluble”.
On to “MNGIIVDKEKVHPGMPDVVKDAKIALLDAPLEIKKPEFDTNLRIEDPSMIQKFLAQEENMLREMVDKIKSVGANVVITQKGIDDMAQHYLSRAGIYAVRRVKKSDMDKLAKATGASIVSTIDEISSSDLGTAERVEQVKVGEDYMTFVTGSKNHHHHHH”, for which the “soluble on expression in E. coli” value is reported as “soluble”.
Next, “MNGVYDVGGTDGLGPINRPADEPVFRAEWEKVAFAMFPATFRAGFMGLDEFRFGIEQMNPAEYLESPYYWHWIRTYIHHGVRTGKIDLEELERRTQYYRENPDAPLPEHEQKPELIEFVNQAVYGGLPASREVDRPPKFKEGDVVRFSTASPKGHARRARYVRGKTGTVVKHHGAYIYPDTAGNGLGECPEHLYTVRFTAQELWGPEGDPNSSVYYDCWEPYIELVDT”: “soluble”; “MNHKVHHHHHHIEGRHMDEYKQVDVGKDGMVATAHPLASEIGADVLKKGGNAIDAAVAIQFALNVTEPMMSGIGGGGFMMVYDGKTKDTTIIDSRERAPAGATPDMFLDENGKAIPFSERVTKGTAVGVPGTLKGLEEALDKWGTRSMKQLITPSIKLAEKGFPIDSVLAEAISDYQEKLSRTAAKDVFLPNGEPLKEGDTLIQKDLAKTFKLIRSKGTDAFYKGKFAKTLSDTVQDFGGSMTEKDLENYDITIDEPIWGDYQGYQIATTPPPSSGGIFLLQMLKILDHFNLSQYDVRSWEKYQLLAETMHLSYADRASYAGDPEFVNVPLKGLLHPDYIKERQQLINLDQVNKKPKAGDPWKYQEGSANYKQVEQPKDKVEGQ”: “soluble”.
Next, “MNHTLQFPKAPEHLLQALNEVIPKCKLMAQQLPETAISLWLIPPVFPTERLDDDIIRRIWSDTPYWIFCWASGLAMAQWLLAEPHHVKDKVVLDFGAGSGVVAIAAKMAGAKRVICCDIDETSLNACRENALLNNVELEYLNDLYLSESVDILLAADVLYDQSNRFFLDEFLKFAPEVWVADSRVKNFSHPGYIKIDERSATTWPDLDEAKEFRNVSFYKTLEHHHHHH”: “not soluble”; “MNHVAVIGGGIIGASWAVVFARRGLEVTIVERDAACLAGLPARLAGMIERSASLLGAGEQPGDVAARIGATDALAAAVGRADYVQEAVSENLALKRTLFAELDALAPAHALLASSTSTYGASQFTEALAGRARCLVAHPMTPPHLSPVVEMAASAWTDPQVLAGAEAFMRSLGQHPVRIRKEIPGFVLNRLQGALLMEMFRVIADDVISPADADALISQGLGLRWATLGPLEGVDLNAPGGIADYLQRYGHIFNDMAVGQGLPAPVDAELISALDGAMRAALPLERLEAKRGWRDRAIAGVRVALHDYTGEKPLEHHHHHH”: “not soluble”; “MNIAIGTTQDRALYEDALRVRRLVFIEEQNVPEDEEIDAFEDDSFHLVLYDGQTPVGAGRLRFIDEGVGKIERICVLPSYRGRGAGRMVMEAIEQLAKTKGAKTAKLNAQTHAEPFYQKLGYTTVSGVFMDAGIPHVTMVKSLE”: “soluble”.
With “MNIDSDIFKIQSNNVLPSRGKILISEPFLRDATFGRSVVLLIDHTEEGSMGLIINKQLPIFVNDIIKEFKYIENIPLYKGGPIATDTLFYLHTLADIPGAIPISKGLYLNGDFDEIKKYILQGNKVDRYIRFFLGYSGWESEQLSTELKENTWLVSKEENAYLMNGDTKDMWKQALEKLGSKYETWSRFPQVPTFNLEHHHHHH”, the “soluble on expression in E. coli” value is reported as “soluble”.
Regarding “MNIGIIGTGNMGNILIDAFLETRAVKPSCLTIINRTPAKAYHIKEKYPSVHIAKTIPEVIEQSQLIFICVKPIDIYPILKKYAEHFSDETCLVSITSPISPSQLETLVPCHVARIIPSITNRALSGASLFTFGDNCSEEWQQKLLRLFKNISTPLVIEEDITRVSSDIASCGPAFFSYLLQCFINAAVDKTNITHEEATTLVSEMVVGMGKLLEKEIFTLPTLQEKVCVKGGVTGEGIRVLEEHVGDMFHKLIERTHEKFDEDLECVDQQFNKHTLEHHHHHH”, the “soluble on expression in E. coli” value was “soluble”.
To “MNIGKPRKLGKTIEDIEEGDSLSLTESIEDKDLLLYLGLTNDANPLYIQHDYAQKTEYEKPIVPSIMLMGIITSAISKHLPGPGSHVVNFSVNFVEPVFHYETLTFQLEVIKVDKMKDVITISVEAVNEQENRVLDAVVMVQPPQVTIDELTEKEGTLTYE” belongs “soluble”; to “MNIIDFNKPVKRSFRGNTAPAPPLEKVLTVILKTDVPVLMGICSDGLRSNSAILGGEFQAEYFSGSVLSGGGNVLVELSSELAFLETRFTLITQLGELINVECKGVLLMDEEGQQELQSGVWPISEGHYQCTCTPRFQVSLGPNDWLEKSAFIGKIDYIQRNETLISFYRMKL”, “not soluble”; to “MNIIDFRFRPNTEAILKGISSNPAFKGMCQSIDFNKMLPQTLEEVVEELDRHHVVKAVISGRDCETTYGAKSNNPSVIEFCHKFPDKFIGFAGLDPHKGMAALAEITHAVHEEGIKGAAIDPYLARIYVNDAKYYPIYAKCCELGIPLIIATGPGTLVPNAVIDHVAPRYIDFVARDFPELKIIASHGGYPWVNEMITVAQRNANVYLELSEYEFFPQSSAYIEAANSILSDKIMYASAHPFVDFKLALKNYEQLPLKPEVREKVMYKNAAKVLGLSDGTFSASKAMDAQEVQMIIENVIAQLSQRGLLANR”, “not soluble”.
As for “MNIKKLAILGTLATTFSFEAFASTGMPKIEELTGDTRTACEVILCLSSAQGRGIKECQAPLRKYFSIRAKKWHKTLAKRRAFLDLCPAANENAKMSALTTAIQHQEYACDAGTLNSRTETRRNWVRRSSEDGGSFSRRLVRTQAYIPDFCKALYDHEFTEYKQIQKPKYVCDANKWYSQADWNRGFERVEVSRKWNHREDRYDIQYKDVPIKKDCWELEHHHHHH”, the “soluble on expression in E. coli” value is “not soluble”.
Next, “MNIQHNLNLIQQKIETACKEENRNQNTVKLLAVSKTKPISAILSAYQAGQTAFGENYVQEGVEKIQYFESQGINLEWHFIGPLQSNKTRLVAEHFDWMQTLDRAKIADRLNEQRPTNKAPLNVLIQINISDEESKSGIQPEEMLTLAKHIENLPHLCLRGLMAIPAPTDNIAEQENAFRKMLELFEQLKQVLPNQQIDTLSMGMTDDMPSAIKCGSTMVRIGTAIFGARNYSTSQNK”: “not soluble”; “MNITNEREDGEKMGSKNYTDVLIAGKIYTLGGLEEETYLQQVASYLNDKIAGLHRQDGFRKQPEDYQNVMTYLNIADDYFKEREHAGLLAVQKEELEKETYRLKHELVSTQMKLEAMRAELEKYKALETLEHSRGKEAEKEEQARK”: “soluble”; “MNKFFSADKKGGEKRRKKSKKKVRIVGMSEIGIWRQDDTMRIVHLSVWCILKRTTASLSGNEWKLSTRHANDGYIVRSPPTISGPERLQENGYVIWILL”: “not soluble”.
Next, “MNKGQRHIKIREIITSNEIETQDELVDMLKQDGYKVTQATVSRDIKELHLVKVPTNNGSYKYSLPADQRFNPLSKLKRALMDAFVKIDSASHMIVLKTMPGNAQAIGALMDNLDWDEMMGTICGDDTILIICRTPEDTEGVKNRLLELL”: “soluble”.
To “MNKLAVLYAEHIATLQKRTREIIERENLDGVVFHSGQAKRQFLDDMYYPFKVNPQFKAWLPVIDNPHCWIVANGTDKPKLIFYRPVDFWHKVPDEPNEYWADYFDIELLVKPDQVEKLLPYDKARFAYIGEYLEVAQALGFELMNPEPVMNFYHYHRAYKTQYELACMREANKIAVQGHKAARDAFFQGKSEFEIQQAYLLATQHSENDNPYGNIVALNENCAILHYTHFDRVAPATHRSFLIDAGANFNGYAADITRTYDFTGEGEFAELVATMKQHQIALMNQLAPGKLYGELHLDCHQRVAQTLSDFNIVDLSADEIVAKGITSTFFPHGLGHHIGLQVHDVGGFMADEQGAHQEPPEGHPFLRCTRKIEANQVFTIEPGLYFIDSLLGDLAATDNNQHINWDKVAELKPFGGIRIEDNIIVHEDSLENMTRELRLRLTTHSLRGLSAPQFSINDPAVMSEYSYPSEPLSYEEEIKKSTFIVHVRTRRILVRRRTLSPILIAVTPMPAITAGLM” belongs “soluble”; to “MNKNKPFIVVIVGPTASGKTELSIELAKRINGEIISGDSMQVYKHMNIGTAKVTPEEMDGIPHHLIDILNPDDTFSAYEFKRLAEDLITDITNRGKVPIIAGGTGLYIQSLIYNYELEDETVTPAQLSIVKQKLSALEHLDNQQLHDYLAQFDAVSAENIHPNNRQRVLRAIEYYLKTKKLLSNRKKVQQFTENYDTLLLGIEMSRKTLYSRINKRVDIMLDHGLFREVQQLVEQGYESCQSMQAIGYKELIPVINGQMIYEDAVNDLKQHSRQYAKRQMTWFKNKMSVHWLDKENMSLQMMLDEITTQIKMAGDPLEHHHHHH”, “not soluble”.
Turning to “MNKNSTSNKKNSKNKKKVDKLDLILNEFKNDIKNEKGENNQNDNKLLNGAIETNNNNNNNNNNSGNNRIHFDKEEIKEIKKKIILKEHVLEEQDNSSIRLLKNWPQLEKTYQTNPPCIPIDMIYGKDGKYPVGEILEYNNYNLSGQSLVEKKEREKLSIDYYEDLRKAAECHRQVRKHMQAFIKPGKKMIDIAQETERKTKELILAEKLKCGWGFPTGCSLNHCAAHYTPNYGDETVLKYDDVCKLDFGVHVNGYIIDCAFTIAFNEKYDNLIKATQDGTNTGIKEAGIDARMCDIGEAIQEAIESYEIELNQKIYPIKAISNLRGHSINKYIIHGGKCVPIVRQKEKNEIMEEGELFAIETFASTGKGYVNHENECSHYMRNPEKQFVPIRLNSAKTLLKVINDNFDTLPFCNRWLDDLGQTRHFMALKTLIDLNIVEPYPPLCDIKNSFTSQMEHTILLRPTCKEVLSRG”, the “soluble on expression in E. coli” value is listed as “not soluble”.
Next, “MNKNVMVKGLTALTILTILTSLGFAENISNQPHSIAKAEKNVKEITDATKEPYNSVVAFVGGTGVVVGKNTIVTNKHIAKSNDIFKNRVSAHHSSKGKGGGNYDVKDIVEYPGKEDLAIVHVHETSTEGLNFNKNVSYTKFADGAKVKDRISVIGYPKGAQTKYKMFESTGTINHISGTFMEFDAYAQPGNSGSPVLNSKHELIGILYAGSGKDESEKNFGVYFTPQLKEFIQNNIEK”: “not soluble”.
